One substance from article PMC9214244, “Multivalent Interaction of Beta-Catenin With its Intrinsically Disordered Binding Partner Adenomatous Polyposis Coli” (Frontiers in Molecular Biosciences, 2022) can be followed below.

Experiment [1] concerns the target pAPCabc D1486S, fluorescein-labelled at Cys 1501 (UniProt P25054). Kind of experiment: fluorescence polarisation; fluorescence anisotropy; β-catenin titrated into 10 nM fluorescein-labelled APC construct; PBS, 1 mM DTT; 15°C; adjusted anisotropy fitted to a Hill equation. (Polarisation of emitted light reports the rotation of a fluorescent probe.)
The target in experiment [2] is APCabc with the rigid linker (RL) inserted between residues 1,500 and 1,501, fluorescein-labelled at Cys 1501 (UniProt P25054). Put plainly: stopped-flow fluorescence; association: 25 nM fluorescein-labelled APC mixed 1:1 by volume with 250-2,000 nM β-catenin (pseudo first-order); dissociation: pre-formed 1:1 complex (200 nM) mixed with 10 times molar excess of the same APC construct; PBS, 1 mM DTT; 15°C.

Experiment [3] has as its target pAPCabc, full-length R3 domain APCabc containing all five phosphomimetics, fluorescein-labelled at Cys 1501 (UniProt P25054). Described as above.
For experiment [4], the target named is APCbc, APC R3 subdomains b and c (residues 1,483–1,533), fluorescein-labelled at Cys 1501 (UniProt P25054). Described as above.
In experiment [5] the target is pAPCabc D1486S, fluorescein-labelled at Cys 1501 (UniProt P25054). Described as above.
Experiment [6] concerns the target APCabc with the flexible linker (FL) inserted between residues 1,478 and 1,479, fluorescein-labelled at Cys 1501 (UniProt P25054). The description is as above.
Experiment [7] deals with APCabc with the flexible linker (FL) inserted between residues 1,500 and 1,501, fluorescein-labelled at Cys 1501 (UniProt P25054). The description is as above.

Chain of armadillo (ARM) repeat domain of human β-catenin (residues 134–671) (P35222 other isoform, or with tags, fused parts or gaps): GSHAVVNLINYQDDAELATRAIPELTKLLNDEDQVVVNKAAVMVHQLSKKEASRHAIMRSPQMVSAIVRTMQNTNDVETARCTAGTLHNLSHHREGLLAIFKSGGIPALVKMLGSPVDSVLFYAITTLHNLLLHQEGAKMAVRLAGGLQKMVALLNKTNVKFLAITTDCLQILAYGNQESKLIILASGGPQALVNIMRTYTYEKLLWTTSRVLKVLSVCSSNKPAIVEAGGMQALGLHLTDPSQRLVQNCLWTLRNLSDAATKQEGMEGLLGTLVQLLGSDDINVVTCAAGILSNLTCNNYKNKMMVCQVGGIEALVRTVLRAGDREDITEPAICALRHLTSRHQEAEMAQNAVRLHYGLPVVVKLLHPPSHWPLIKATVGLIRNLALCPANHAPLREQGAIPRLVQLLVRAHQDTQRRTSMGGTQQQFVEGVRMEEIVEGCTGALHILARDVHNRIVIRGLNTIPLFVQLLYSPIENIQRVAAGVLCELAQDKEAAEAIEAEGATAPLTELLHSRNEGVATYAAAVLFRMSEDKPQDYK

Take “armadillo (ARM) repeat domain of human β-catenin (residues 134–671) (from UniProt P35222 134-671) (domain or fragment)”: the Kd in experiment [1] turned out to be 30 nM. Besides, the koff fast in experiment [2] stood at 0.89 s⁻¹; in experiment [3], 0.07 s⁻¹; in experiment [4], 0.73 s⁻¹; in experiment [5] it was 2.89 s⁻¹; in experiment [6], 0.77 s⁻¹; in experiment [7], 0.45 s⁻¹. Besides, the koff slow amounted to 0.223 s⁻¹ in experiment [2]; 0.0021 s⁻¹ in experiment [3]; 0.4 s⁻¹ in experiment [5]; 0.177 s⁻¹ in experiment [6]; 0.1 s⁻¹ in experiment [7]. Besides, the on-rate constant (kon) in experiment [2] came to 1.81e+07 M⁻¹ s⁻¹; in experiment [3], 2.07e+08 M⁻¹ s⁻¹; in experiment [4], 1.48e+07 M⁻¹ s⁻¹; in experiment [5], 1.51e+08 M⁻¹ s⁻¹; in experiment [6] it was 8.35e+07 M⁻¹ s⁻¹; in experiment [7], 2.41e+07 M⁻¹ s⁻¹. Moreover, the time constant τ (from the fast off-rate) in experiment [2] was determined as 0.8 s; in experiment [3], 9.51 s; in experiment [4], 0.96 s; in experiment [5] it was 0.24 s; in experiment [6], 0.9 s; in experiment [7] it was 1.54 s.

The term Kd denotes a measure of binding affinity in units of concentration. High values mean a looser complex, low ones a tighter complex. Usually kon stands for the second-order rate constant of association. Low values mean slow association, high ones fast association.
